Literature values, collected in publication PMC12498412.

Biological target: Barnase (Bacillus amyloliquefaciens) (UniProt P00648)
Sequence (P00648 48-157): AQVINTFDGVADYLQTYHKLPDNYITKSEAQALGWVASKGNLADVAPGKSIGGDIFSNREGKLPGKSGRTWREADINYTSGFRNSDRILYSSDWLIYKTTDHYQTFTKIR

Sequence of Barstar (P11540 2-90): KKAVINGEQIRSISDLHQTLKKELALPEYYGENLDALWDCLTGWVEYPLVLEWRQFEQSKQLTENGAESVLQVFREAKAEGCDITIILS

Substance: Barstar (from UniProt P11540)
- Kd: 64 nM
